Laboratory results taken from patent US8361765B2, “Enzymic method for the enantioselective reduction of keto compounds” (IEP GmbH, priority 2001, dated 2013).

Tests used:
Type in all cases: biochemical, Lactobacillus minor
[1] = pH optimum of the enzymic reaction; details: 30° C.
Description: As in the standard assay, the concentration of ethyl 4-chloro-3-oxo-butanoate and of NADPH was 10 mM and 0.19 mM, respectively. The reaction was determined at 30° C.

[2] = Temperature stability of L. minor alcohol dehydrogenase; details: for temperature up to which the enzyme is stable: 30 min incubation; for Activity in % (n = 4): measured at 30° C.
Description: The temperature stability for the range from 25° C. to 50° C. was determined similarly to the manner described in A.). For this purpose, in each case a 1:100 dilution of the purified enzyme was incubated at the particular temperature for 30 min and then measured at 30° C. using the above assay procedure. Here too, the starting value used was the measured value obtained immediately after diluting the enzyme in triethanolamine buffer 50 mM pH=7.0. This value was also set here as 100% value. L. minor alcohol dehydrogenase is stable up to a temperature of 40° C. Thereafter, the activity rapidly declines.

[3] = Enzyme obtainment and purification: activity of crude extract and purified enzyme; details: for volume activity: 25° C.
Description: The enzyme was obtained by culturing the strain with the highest enzymic activity in a fermenter (fed batch, 10 l) and inducing it at 40 OD500 with 1 mM IPTG. After 18 h, the cells were harvested, taking up 300 g of cells in 3 l of Kpi buffer (50 mM, pH=7, 1 mM MgCl2) and disrupted subsequently by means of a French press (Gaullin, Siemens).
To characterize the enzyme, a portion of the enzyme obtained was purified by means of […] chromatography on Q-Sepharose ff (fast flow). For this purpose, the column used was equilibrated with 50 mM Kpi buffer pH=7.0, 1 mM MgCl2. After application of the crude extract to the column and brief washing with equilibration buffer, the enzyme was eluted with an increasing linear salt gradient (0-1M NaCl, 1 ml/min) at a salt concentration of about 0.3 M NaCl. […] The enzyme purified in this way thus has a specific activity of approximately 35 to 40 U/mg of protein.
All enzymic activities were determined at 25° C. The enzyme activity was calculated as follows: • Calculation: 1 unit=conversion of 1 μmol of substrate per min • Lambert-Beer law • NADPH decrease was monitored at 340 nm (see enzymic assay mixture)=ΔE/min • N=enzyme dilution factor • V=enzyme volume in ml (0.01) • Vcuvette=cuvette volume=1 ml • d=cuvette light path=1 cm • eNADPH NADPH extinction coefficient=6.22 [mM^−1*cm^−1] • Activity=(ΔE/min*N*Vcuvette)/(eNADPH*V*d)
Protein determination was carried out according to Bradford (Bio-Rad Laboratories GmbH, Protein Assay).

[4] = pH stability of cloned L. minor alcohol dehydrogenase
Description: The activity of the enzyme as a function of storage in buffers with different pH values in the range from pH 4 to 11 was studied. For this purpose, various buffers (50 mM) in the range from pH 4 to 11 were prepared and the enzyme purified in Example 2 was diluted 1:100 therein and incubated for 30 min. All buffers contained 1 mM MgCl2. 10 μl of this were then used in the normal enzyme assay (triethanolamine buffer 100 mM pH=7.0, 1 mM MgCl2, 10 mM ethyl 4-chloro-3-oxo-butanoate and 0.19 mM NADPH). The reaction was monitored at 30° C. and 340 nm for 1 min.
The starting value here is the measured value obtained immediately after diluting the enzyme in triethanolamine buffer 50 mM pH=7.0. Under predefined conditions, this value corresponded to a change in extinction of 0.20/min and was set as 100% value, with all subsequent measured values being related to this value.

[5] = Temperature optimum of the enzymic reaction
Description: The optimal assay temperature was determined by measuring the enzyme activity from 25° C. to 60° C. The assay mixture corresponded to the standard concentration of ethyl 4-chloro-3-oxo-butanoate and NADPH.

[6] = test system: L. minor alcohol dehydrogenase; assay: Enzyme stability under process conditions; details: for several days
Description: The stability of the enzyme under process conditions was studied by diluting L. minor alcohol dehydrogenase 1:100 with the solvent mixtures used in the two-phase system, followed by incubation at room temperature. 10 μl of the enzyme solution were then used in the standard assay mixture. Table 8 depicts the enzyme activities as a % of the starting value.

[7] = crude extract after fermentation and French press

B1: L. minor alcohol dehydrogenase: R-specific alcohol dehydrogenase from Lactobacillus minor, SEQ ID NO: 4, overexpressed in Escherichia coli RB 791 (protein, listed as Lactobacillus sp.)
chain: MRGSHHHHHHGSMTDRLKGKVAIVTGGTLGIGLAIADKFVEEGAKVVITGRHADVGEKAARSIGGTDVIRFVQHDASDETGWTKLFDTTEEAFGPVTTVVNNAGIAVSKSVEDTTTEEWRKLLSVNLDGVFFGTRLGIQRMKNKGLGASIINMSSIEGEVGDPALGAYNASKGAVRIMSKSAALDCALKDYDVRVNTVHPGYIKTPLVDDLEGAEEMMSQRTKTPMGHIGEPNDIAWICVYLASDESKFATGAEFVVDGGYTAQ
[1]; assay at pH 4, sodium acetate/acetic acid
  Activity in U/ml of undiluted enzyme: 85 U/ml
[1]; assay at pH 4.5, sodium acetate/acetic acid
  Activity in U/ml of undiluted enzyme: 132 U/ml
[1]; assay at pH 5, MES/NaOH
  Activity in U/ml of undiluted enzyme: 218 U/ml
[1]; assay at pH 5.5, MES/NaOH
  Activity in U/ml of undiluted enzyme: 240 U/ml
[1]; assay at pH 6, triethanolamine/NaOH
  Activity in U/ml of undiluted enzyme: 381 U/ml
[1]; assay at pH 6.5, triethanolamine/NaOH
  Activity in U/ml of undiluted enzyme: 349 U/ml
[1]; assay at pH 7, triethanolamine/NaOH
  Activity in U/ml of undiluted enzyme: 510 U/ml
[1]; assay at pH 7.5, tris/HCl
  Activity in U/ml of undiluted enzyme: 707 U/ml
[1]; assay at pH 8, tris/HCl
  Activity in U/ml of undiluted enzyme: 585 U/ml
[1]; assay at pH 8.5, tris/HCl
  Activity in U/ml of undiluted enzyme: 486 U/ml
[1]; assay at pH 9, tris/HCl
  Activity in U/ml of undiluted enzyme: 488 U/ml
[1]; assay at pH 10, glycine/NaOH
  Activity in U/ml of undiluted enzyme: 131 U/ml
[1]; assay at pH 11, glycine/NaOH
  Activity in U/ml of undiluted enzyme: 0 U/ml
[2]
  temperature up to which the enzyme is stable: ≤ 40 °C
[2]; listed as Lactobacillus minor alcohol dehydrogenase
  temperature up to which the enzyme is stable: about 40 °C
[2]; after 30 min at 25° C.
  Activity in % (n = 4): 101 ± 3.2%
[2]; after 30 min at 30° C.
  Activity in % (n = 4): 81.2 ± 5.8%
[2]; after 30 min at 35° C.
  Activity in % (n = 4): 67.0 ± 1.6%
[2]; after 30 min at 37° C.
  Activity in % (n = 4): 20.2 ± 2.4%
[2]; after 30 min at 40° C.
  Activity in % (n = 4): 33.4 ± 3.8%
[2]; after 30 min at 42° C.
  Activity in % (n = 4): 0 ± 0%
[2]; after 30 min at 45° C.
  Activity in % (n = 4): 0 ± 0%
[2]; after 30 min at 50° C.
  Activity in % (n = 4): 0 ± 0%
[3]; [7]
  activity per wet mass: 20 000 U/g of wet mass
  volume activity: approximately 2000 U/ml
[3]; overexpressed in Escherichia coli RB 791
  activity per wet mass on overexpression in Escherichia coli: 20 000 units/g of wet mass
[3]; purified enzyme, Q-Sepharose ff
  volume activity: about 800 U/ml
[4]; after 30 min at pH 4, sodium acetate/acetic acid 50 mM, 100% = value directly after dilution
  Activity in % (n = 2): 87.5 ± 6.5%
[4]; after 30 min at pH 4.5, sodium acetate/acetic acid 50 mM
  Activity in % (n = 2): 94.5 ± 3.0%
[4]; after 30 min at pH 5, MES/NaOH 50 mM
  Activity in % (n = 2): 55 ± 5%
[4]; after 30 min at pH 5, sodium acetate/acetic acid 50 mM
  Activity in % (n = 2): 94.5 ± 1.5%
[4]; after 30 min at pH 5.5, KH2PO4/K2PO4 50 mM
  Activity in % (n = 2): 96 ± 3%
[4]; after 30 min at pH 5.5, MES/NaOH 50 mM
  Activity in % (n = 2): 77.1 ± 2.1%
[4]; after 30 min at pH 6, KH2PO4/K2PO4 50 mM
  Activity in % (n = 2): 100 ± 0%
[4]; after 30 min at pH 6, triethanolamine/NaOH 50 mM
  Activity in % (n = 2): 100 ± 0%
[4]; after 30 min at pH 6.5, KH2PO4/K2PO4 50 mM
  Activity in % (n = 2): 97.5 ± 2.5%
[4]; after 30 min at pH 6.5, triethanolamine/NaOH 50 mM
  Activity in % (n = 2): 100 ± 0%
[4]; after 30 min at pH 7, KH2PO4/K2PO4 50 mM
  Activity in % (n = 2): 100 ± 0%
[4]; after 30 min at pH 7, triethanolamine/NaOH 50 mM
  Activity in % (n = 2): 97.9 ± 2.1%
[4]; after 30 min at pH 7.5, KH2PO4/K2PO4 50 mM
  Activity in % (n = 2): 97.5 ± 7.5%
[4]; after 30 min at pH 7.5, tris/HCl 50 mM
  Activity in % (n = 2): 94.6 ± 1.3%
[4]; after 30 min at pH 8, KH2PO4/K2PO4 50 mM
  Activity in % (n = 2): 93.0 ± 3.0%
[4]; after 30 min at pH 8, tris/HCl 50 mM
  Activity in % (n = 2): 89.2 ± 0%
[4]; after 30 min at pH 8.5, KH2PO4/K2PO4 50 mM
  Activity in % (n = 2): 102.5 ± 2.5%
[4]; after 30 min at pH 8.5, tris/HCl 50 mM
  Activity in % (n = 2): 60 ± 4.2%
[4]; after 30 min at pH 9, glycine/NaOH 50 mM
  Activity in % (n = 2): 76.5 ± 1.5%
[4]; after 30 min at pH 9, tris/HCl 50 mM
  Activity in % (n = 2): 63.1 ± 4.8%
[4]; after 30 min at pH 9.5, glycine/NaOH 50 mM
  Activity in % (n = 2): 52.5 ± 7.5%
[4]; after 30 min at pH 10, glycine/NaOH 50 mM
  Activity in % (n = 2): 52.5 ± 7.5%
[4]; after 30 min at pH 11, glycine/NaOH 50 mM
  Activity in % (n = 2): 0.0 ± 0%
[5]; assay temperature 25° C.
  Activity in U/ml of undiluted enzyme: 540 U/ml
[5]; assay temperature 30° C.
  Activity in U/ml of undiluted enzyme: 1235 U/ml
[5]; assay temperature 35° C.
  Activity in U/ml of undiluted enzyme: 1968 U/ml
[5]; assay temperature 40° C.
  Activity in U/ml of undiluted enzyme: 1621 U/ml
[5]; assay temperature 45° C.
  Activity in U/ml of undiluted enzyme: 2469 U/ml
[5]; assay temperature 50° C.
  Activity in U/ml of undiluted enzyme: 2469 U/ml
[5]; assay temperature 55° C.
  Activity in U/ml of undiluted enzyme: 2855 U/ml
[5]; assay temperature 60° C.
  Activity in U/ml of undiluted enzyme: 0 U/ml
[6]
  stability in the combination of solvents used in the two-phase system (in words): stable and active
